In patent US20260250418A1 (BIOCYTOGEN PHARMACEUTICALS BEIJING, published 2026):

T1: monkey (Macaca fascicularis) HER3 on CHO-fasHER3 cells (monkey (Macaca fascicularis), UniProt P21860 20-643 (human entry))
T1 construct: CHO-S cells transfected with fasHER3
T1 chain: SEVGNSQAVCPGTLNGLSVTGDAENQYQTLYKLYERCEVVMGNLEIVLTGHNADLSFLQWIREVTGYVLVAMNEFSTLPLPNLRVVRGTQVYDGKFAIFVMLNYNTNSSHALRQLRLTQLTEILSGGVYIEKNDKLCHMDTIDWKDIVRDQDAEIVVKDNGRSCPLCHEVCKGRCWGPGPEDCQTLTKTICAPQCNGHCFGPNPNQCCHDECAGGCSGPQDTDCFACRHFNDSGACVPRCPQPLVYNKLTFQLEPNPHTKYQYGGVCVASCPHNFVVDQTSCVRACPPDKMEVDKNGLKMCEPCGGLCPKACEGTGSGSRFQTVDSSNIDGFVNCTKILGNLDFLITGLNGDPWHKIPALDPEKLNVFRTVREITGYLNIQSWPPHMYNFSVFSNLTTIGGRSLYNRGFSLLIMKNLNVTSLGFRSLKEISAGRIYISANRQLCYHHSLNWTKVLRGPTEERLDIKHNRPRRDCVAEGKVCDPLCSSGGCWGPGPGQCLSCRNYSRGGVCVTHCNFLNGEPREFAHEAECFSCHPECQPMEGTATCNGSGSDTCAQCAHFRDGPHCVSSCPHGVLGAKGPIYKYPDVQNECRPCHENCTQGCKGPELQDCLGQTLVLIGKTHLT

T2: dog HER3 on CHO-dHER3 cells (dog, UniProt P21860 20-1342 (human entry))
T2 construct: CHO-S cells transfected with dHER3
T2 chain: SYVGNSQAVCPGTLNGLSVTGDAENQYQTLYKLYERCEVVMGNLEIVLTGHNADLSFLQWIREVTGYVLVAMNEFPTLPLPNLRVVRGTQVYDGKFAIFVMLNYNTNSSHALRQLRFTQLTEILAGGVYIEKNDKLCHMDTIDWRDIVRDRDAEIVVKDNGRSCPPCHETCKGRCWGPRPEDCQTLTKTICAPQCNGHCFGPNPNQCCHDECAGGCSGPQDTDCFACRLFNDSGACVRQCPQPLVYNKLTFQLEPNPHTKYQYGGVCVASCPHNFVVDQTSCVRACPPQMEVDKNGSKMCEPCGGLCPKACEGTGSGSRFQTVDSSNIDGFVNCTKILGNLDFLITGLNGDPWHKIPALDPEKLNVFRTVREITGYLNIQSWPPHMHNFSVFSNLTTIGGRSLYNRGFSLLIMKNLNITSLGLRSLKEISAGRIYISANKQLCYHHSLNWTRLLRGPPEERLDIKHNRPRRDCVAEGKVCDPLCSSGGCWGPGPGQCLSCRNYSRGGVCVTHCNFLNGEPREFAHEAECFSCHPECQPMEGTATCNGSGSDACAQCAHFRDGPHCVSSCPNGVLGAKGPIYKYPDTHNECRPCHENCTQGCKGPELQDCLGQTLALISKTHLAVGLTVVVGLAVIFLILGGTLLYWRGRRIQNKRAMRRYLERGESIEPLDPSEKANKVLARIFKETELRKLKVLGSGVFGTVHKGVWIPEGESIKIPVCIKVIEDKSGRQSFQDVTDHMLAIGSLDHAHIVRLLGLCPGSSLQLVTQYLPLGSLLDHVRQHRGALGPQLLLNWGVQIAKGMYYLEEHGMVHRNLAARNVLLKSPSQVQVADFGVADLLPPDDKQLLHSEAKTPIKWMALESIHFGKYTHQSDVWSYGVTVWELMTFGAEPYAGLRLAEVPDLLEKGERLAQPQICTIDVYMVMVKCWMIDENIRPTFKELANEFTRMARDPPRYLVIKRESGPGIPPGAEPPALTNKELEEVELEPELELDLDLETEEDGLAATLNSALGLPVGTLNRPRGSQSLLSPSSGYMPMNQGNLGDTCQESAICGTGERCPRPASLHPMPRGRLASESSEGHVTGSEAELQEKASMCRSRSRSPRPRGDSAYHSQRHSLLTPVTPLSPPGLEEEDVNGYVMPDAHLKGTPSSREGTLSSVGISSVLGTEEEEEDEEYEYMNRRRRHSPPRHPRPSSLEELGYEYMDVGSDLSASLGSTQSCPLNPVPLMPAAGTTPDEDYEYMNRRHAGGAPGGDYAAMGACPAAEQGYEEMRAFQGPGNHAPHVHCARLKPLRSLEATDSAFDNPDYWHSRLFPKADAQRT


Columns and labels:
Experiment in all cases: flow cytometry, transfected CHO cells
[1] = biological target: T3, human HER3 on CHO-hHER3 cells (human, UniProt P21860 20-643)
T3 construct: CHO-S cells transfected with hHER3
Procedure: (§1) CHO-hHER3 cells, CHO-mHER3 cells, CHO-fasHER3 cells or CHO-dHER3 cells were transferred to a 96-well plate at a density of 5×10⁴ cells/well respectively. The anti-HER3 antibodies were added to the 96-well plate, and incubated at 4° C. for 30 min.

[2] = biological target: T1, monkey (Macaca fascicularis) HER3 on …
Procedure: as §1

[3] = biological target: T2, dog HER3 on CHO-dHER3 cells
Procedure: as §1

| Binder | Percentage of Positive Cells [1] [%] | Percentage of Positive Cells [2] [%] | Percentage of Positive Cells [3] [%] |
| --- | --- | --- | --- |
| anti-HER3 antibody 3G6 (antibody, V domains shown, common light chain) VH: QVQLVQSGPVLVKPTETLTLTCTVSGFSLSNIRMGVSWIRQPPGKALEWLAHIFSNDDKSYSTSLKSRLTISKDTSKSQVVLTMTNVDPVDTATYYCTRMRYSGGPFDYWGQGTLVTVSS VL: not shown | 66.5 | 65.6 | 29.8 |
| anti-HER3 antibody 1B2 (antibody, V domains shown, common light chain) VH: QVQLVQSGPVLVKPTETLTLTCTVSTFSLSNARMGVSWIRQPPGKALEWLAHIFSNDDKSYSPSLKSRLTISKDTSKTQVVLTMTNMDPVDTATYYCSRMRYSGGPFDYWGQGSLVTVSS VL: not shown | 71.3 | 69 | 32.1 |
| anti-HER3 antibody 3E1 (antibody, V domains shown, common light chain) VH: EVQLVQSGPVLAKPTETLTLTCTVSGFSLSNIRMGVSWIRQPPGKALEWLAHIFSNDDKSYSPSLKNRLTISKDTSKSQVVLTMTTMDPMDTATYYCTRMKYSGGPFDYWGQGTLVTVSS VL: not shown | 70.6 | 69.4 | 13.2 |
| anti-HER3 antibody 1C5 (antibody, V domains shown, common light chain) VH: QVQLVESGGGVVQPGKSLRLSCAASGFTFSRSGMHWVRQAPGKGLEWVALISFDGSNKYYADSVKGRFTISRDNSKNTLNLQMNSLRAEDTAVYYCAKGGFGVVIYDAFDIWGHGTMVTVSS VL: not shown | 74 | 72.8 | 33.1 |
